From the supplement of paper PMC9170038

Test system: MS2 coat protein
Experiment: apparent KD of MS2 coat protein; designed switch direction (-1 OFF switch, 1 ON switch): 1; higher = weaker reporter binding
How it was run: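 Stalled E. coli RNA polymerase transcribed designed RNA switches on Illumina chips, which were then titrated with SNAP-549-labelled MS2 coat protein, doubling from 0.7 or 1.5 nM to 3 µM. Steps lasted from 0.8–1.5 h at the lowest concentration to 10–20 min at the highest. The apparent KD is each design's median over clusters of curve-fitted normalised fluorescence.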

[1] = Eterna round: R95, input ligand: microRNA oligo, concentration not stated
[2] = input ligand: microRNA oligo, concentration not stated
[3] = Eterna round: R95, input ligand: FMN 200 uM
[4] = Eterna round: R95, input ligand: none

Row | Sequence | apparent KD of MS2 coat protein [1] | apparent KD of MS2 coat protein (input ligand: FMN 200 uM) | apparent KD of MS2 coat protein [2] | apparent KD of MS2 coat protein (input ligand: none) | apparent KD of MS2 coat protein [3] | apparent KD of MS2 coat protein [4]
1 | CAGCGCUGUUGAGAGGAUAUGCGGUGAUGGACAUGAGGAUCACCCAUGUUAGCGACAGCAUUACGGUAGAAGGCUCCACAGCUGC [Soteed Omei mod 14] (puzzle: Same State 2) | 17.9 nM | – | – | – | – | –
2 | AAUUAAGAUCUAGGAUAUCACGUCGAAUAGACGUGAGAAGGAGAUCAUAACAUGAGGAUCACCCAUGUAUUACAUGAAUUAAUU [SSNG1/6-B1] (Eterna round: R96, puzzle: Same State NG 1) | – | 28 nM | 21.6 nM | 28.4 nM | – | –
3 | UGCCUGAGUCGAGGAUAUUAUGGAUCCUUUAAUACAUGAGGAUCACCCAUGUAAUUAAUUAUACAUGAGAAGGCGACUCAGGCA [SSNG2/11-A2] (Eterna round: R96, puzzle: Same State NG 2) | – | 17.4 nM | 97 nM | 90.1 nM | – | –
4 | AGUGAACAUGAGGAUCACCCAUGUGAGAGGGAUGUAGGAUAUGUAAGGAAGUAAGAUGGAACAGAAGGACAAAGUG [JR_SS!_Sub067] (puzzle: Same State 1) | 46.1 nM | – | – | – | 38.6 nM | 50.4 nM
5 | UAAGGACAUGAGGAUCACCCAUGUGCUUCAUAUGGAGAAUCUCAGGAUAUGCUGAGGAUCACCCAGCAGAAGGGAGAUCCGAGG (Eterna round: R96, puzzle: Same State NG 3) | – | 71.9 nM | 93 nM | 120 nM | – | –
6 | GGAGAACAUGAGGAUCACCCAUGUGGAUGGGCGCUAGGAUAUGCGAGAGGGUGAAGAGAAGCAGAAGGAGUGGAUA [JR_SS1_Sub036] (puzzle: Same State 1) | 104 nM | – | – | – | 101 nM | 161 nM
7 | UUAUCUCUUACAUGAGGAUCACCCAUGUUUUUAUGUCUUAGACAGGAUAUAGUAGUCUCGUAUUACUAGAAGGGUCUUUUUAUU [JR_SSNG3_Sub020] (Eterna round: R96, puzzle: Same State NG 3) | – | 18.7 nM | 22.4 nM | 26.4 nM | – | –
8 | UCGGGCGUACUUGCUGACAUGAGGAUCACCCAUGUAAAUGGGAAGGAUAUGGUACCGUUUCGGUACCAGAAGGUCCUGGGUGCU [salish99_SSNG3_r04_309] (Eterna round: R96, puzzle: Same State NG 3) | – | 2270 nM | 674 nM | 3840 nM | – | –
9 | AAAAUGCGGGAAGGAUAUGGGAAAGGAAGUGUACCAGAAGGUCUCGCGGCCAAGGACAUGAGGAUCACCCAUGUUAACGCCCGA [PowerStrip SSNG 1.8] (Eterna round: R96, puzzle: Same State NG 1) | – | 204 nM | 43.4 nM | 40.8 nM | – | –
10 | ACAUGACAUGACAUGAGGAUCACCCAUGUGAGGAUCACCCGGGAGGAUAUAGCCCAUGUGGAUCACUAGAAGGCCCUGAGGAUC [Same State NG3 S1] (Eterna round: R96, puzzle: Same State NG 3) | – | 36.4 nM | 39.5 nM | 49.5 nM | – | –
11 | UAAAUACAUGAGGAUCACCCAUGUCAAAAGACAUGAGGAUAUGUACAGACUUCGGUCUGUACAGAAGGCAUGAAUA [salish99_ss1_r3_096] (puzzle: Same State 1) | 294 nM | – | – | – | 34.4 nM | 566 nM
12 | AGCUAUUAAUCAGGAUAUGGUCACAUGAGGAUCACCCAUGUAUAGAUGAUAAAAUGUGGUCUACACUAGAAGGGAUUGCUAACA [SameState NG2 #59] (Eterna round: R96, puzzle: Same State NG 2) | – | 89.5 nM | 78.9 nM | 106 nM | – | –
13 | GUUACAUGAGGAUCACCCAUGUAUGUGUGGGAGUAAGUGUCUUAGGAUAUCUGUGAUUUAAUUUAAGAGAAGGAAGAUUGUUGU [JMF's solution 32] (Eterna round: R96, puzzle: Same State NG 3) | – | 126 nM | 71.6 nM | 96.1 nM | – | –
14 | CACAUGAGGAUCACCCAUGUGAGGCGGCAAUAAAGCCGCGCACAGGAUAUAGCGCUAUGAAUGCGCUAGAAGGGUGAUUAGAAC [Reines] (Eterna round: R96, puzzle: Same State NG 3) | – | 240 nM | 59.9 nM | 36.5 nM | – | –
15 | ACAUGAGGCGCAGGAUAUACAGUUGUAUAACAUGAGGACAUGACAUGAGGAUCACCCAUGUCCCAGUAGAAGGGCGAACAUGAG [Same State NG2 S2] (Eterna round: R96, puzzle: Same State NG 2) | – | 172 nM | 102 nM | 144 nM | – | –
16 | UGGUACAUGGGAGGAUAUCCUCAGGAGACAUGAGGAUCACCCAUGUAAUAUAAGCCGAAAGGCAUGGAGAAGGCCCAUGUACCU [JL SSNG1 3.81] (Eterna round: R96, puzzle: Same State NG 2) | – | 27.6 nM | 150 nM | 167 nM | – | –
17 | UACUUCAUGUAAGGAUAUGCAGCCGUUUCGGCUGCAGAAGGUACUAUAAUACAUGAGGAUCACCCAUGUCUCUCGCAUUGCGAG [JL SSNG1 1.50] (Eterna round: R96, puzzle: Same State NG 1) | – | 53.6 nM | 86.2 nM | 158 nM | – | –
18 | UAUUAGAUCCGAGGAUAUCCUUAUUACAAACAUGAGGAUCACCCAUGUAAAGGGAAUGAGUUGUAGGAGAAGGCGGAUUUAGUU [JR_SSNG2_Sub057] (Eterna round: R96, puzzle: Same State NG 2) | – | 33.5 nM | 33 nM | 51 nM | – | –
19 | UGGUACAUGGGAGGAUAUCUCAUGGAGACAUGAGGAUCACCCAUGUAGAUCGACGGUAACGUCGGAGAGAAGGCCCAUGUACCU [MOD JL SSNG1 3.70] (Eterna round: R96, puzzle: Same State NG 2) | – | 17.4 nM | 32.6 nM | 50 nM | – | –
20 | GUAGCAUACCGAGGAUAUUCAUAUUACAUGAGGAUCACCCAUGUAAGGCCACAUUAGUGGCCUUGGGAGAAGGCGGAAUGCUAC [Xeonanis - 20 Mod42] (Eterna round: R96, puzzle: Same State NG 2) | – | 18.3 nM | 30 nM | 180 nM | – | –
21 | GUAGCAUACCGAGGAUAUUCAUUACAUGAGGAUCACCCAUGUUUUAUAGGUCGAUUACGACCUUGGGAGAAGGCGGAAUGCUAC [Xeonanis - 20 Mod30] (Eterna round: R96, puzzle: Same State NG 2) | – | 10.5 nM | 9.36 nM | 15.6 nM | – | –
22 | GGCAGUCCGACACAGGAUAUGGGUAACGAAACAUGAGGAUCACCCAUGUGGAAACAUCGGGUUGCCUAGAAGGGUGGAAAGAUUG [Xeti] (Eterna round: R96, puzzle: Same State 2) | – | 32.4 nM | 71.6 nM | 124 nM | – | –
23 | UAUGAAUAGCAAGGAUAUUGAUAACAUGAGGAUCACCCAUGUAAUUGAUUGAGAAAGAUUAGUUACAAGAAGGUGCAAUUGAUU [JR_SSNG2_Sub034] (Eterna round: R96, puzzle: Same State NG 2) | – | 282 nM | 441 nM | 311 nM | – | –
24 | AGCUAUUACGAAGGAUAUUCUGACAUGAGGAUCACCCAUGUCUUCAUGAUUUAUUGUGAUCACGUGGAGAAGGUUGUACUAACA [SameState NG2 #27] (Eterna round: R96, puzzle: Same State NG 2) | – | 90.4 nM | 77.9 nM | 91.4 nM | – | –
25 | AACAAUCUAUCUGAGGAUAUCAUGAAAUAAACAUGAGGAUCACCCAUGUGCAGGAAAACUGCAUUUGAGAAGGCAGAUAGAUUGA [salish99_ss2_r3_048] (puzzle: Same State 2) | 106 nM | – | – | – | 14.6 nM | 67.2 nM
26 | UUGAAGAAUUAAGGAUAUUGAAUACAUAUGUUUAACAUGAGGAUCACCCAUGUGGGUUGCGGUAUCGAGAAGGUAAAUUACUAA [Mat - Same State NG 2 - JL mod - D1] (Eterna round: R96, puzzle: Same State NG 2) | – | 140 nM | 80.5 nM | 112 nM | – | –
27 | UCUUGGUUUUUGCUCGUUUUUUGUGUUGAACAUGAGGAUCACCCAUGUAUUGUACGGUCCAAUUUGGUGGUAGUCCG [JMF 68] (puzzle: Sensor for hsa-mir-208a) | 29.6 nM | – | – | – | 40.4 nM | 46.9 nM
28 | CCGUUGAUAGGACAGGAUAUGACUGUCGUCACAUGAGGAUCACCCAUGUCCCGGCAAUGCCACCGUUAGAAGGGUCCCGUCUCGG [Beenraor] (puzzle: Same State 2) | 16.9 nM | – | – | – | – | –
